# In publication PMC3322552:
# Molecular target: Caulobacter crescentus ScsC with a His tag, without signal sequence (Caulobacter crescentus)
# Test: SEC
substance,measurement,value
"Caulobacter crescentus ScsC with a His tag, without signal sequence (natural protein)",stoichiometry N,2
